# Source: patent US20200216522A1 (DENALI THERAPEUTICS, published 2020)
# T1: Peptide_036 (human)
# T1 peptide: PPAPKTPPSSGEPPK
# T2: Peptide_080 (human)
# T2 peptide: SPVVSGDTSPRHLSN
# T3: Peptide_086 (human)
# T3 peptide: ATLADEVSASLAKQG
# T4: Peptide_033 (human)
# T4 peptide: GQKGQANATRIPAKT
# T5: Peptide_031 (human)
# T5 peptide: IATPRGAAPPGQKGQ
# T6: Peptide_059 (human)
# T6 peptide: CGSKDNIKHVPGGGS
# T7: Peptide_008 (human)
# T7 peptide: EGDTDAGLKESPLQT
# T8: Peptide_063 (human)
# T8 peptide: KPVDLSKVTSKCGSL
# T9: Peptide_020 (human)
# T9 peptide: EIPEGTTAEEAGIGD
# T10: Peptide_053 (human)
# T10 peptide: GSTENLKHQPGGGKV
# T11: Peptide_061 (human)
# T11 peptide: PGGGSVQIVYKPVDL
# T12: Peptide_083 (human)
# T12 peptide: VSSTGSIDMVDSPQL
# T13: Peptide_074 (human)
# T13 peptide: GGNKKIETHKLTFRE
# T14: Peptide_034 (human)
# T14 peptide: ANATRIPAKTPPAPK
# T15: Peptide_066 (human)
# T15 peptide: GNIHHKPGGGQVEVK
# T16: Peptide_055 (human)
# T16 peptide: GGGKVQIINKKLDLS
# T17: Peptide_047 (human)
# T17 peptide: TPPKSPSSAKSRLQT
# T18: Peptide_079 (human)
# T18 peptide: EIVYKSPVVSGDTSP
# T19: Peptide_075 (human)
# T19 peptide: IETHKLTFRENAKAK
# T20: Peptide_028 (human)
# T20 peptide: GSDDKKAKGADGKTK
# T21: Peptide_072 (human)
# T21 peptide: SLDNITHVPGGGNKK
# T22: Peptide_038 (human)
# T22 peptide: GEPPKSGDRSGYSSP
# T23: Peptide_018 (human)
# T23 peptide: GKQAAAQPHTEIPEG
# T24: Peptide_060 (human)
# T24 peptide: NIKHVPGGGSVQIVY
# T25: Peptide_037 (human)
# T25 peptide: TPPSSGEPPKSGDRS
# T26: Peptide_058 (human)
# T26 peptide: NVQSKCGSKDNIKHV
# T27: Peptide_052 (human)
# T27 peptide: VKSKIGSTENLKHQP
# T28: Peptide_014 (human)
# T28 peptide: AKSTPTAEDVTAPLV
# T29: Peptide_078 (human)
# T29 peptide: TDHGAEIVYKSPVVS
# T30: Peptide_009 (human)
# T30 peptide: AGLKESPLQTPTEDG
# T31: Peptide_069 (human)
# T31 peptide: SEKLDFKDRVQSKIG
# T32: Peptide_067 (human)
# T32 peptide: KPGGGQVEVKSEKLD
# T33: Peptide_016 (human)
# T33 peptide: TAPLVDEGAPGKQAA
# B1: chimeric IgG clone 1D10 (antibody, V domains shown)
# VH: EVQLQQSGAELVRPGASVKLSCTASGFNIKDSLMHWMKQRPEQGLEWIGWIDPEDGETKYAPKFQDKATLTADTSSNAAYLQLSSLTSEDTAIYYCVRGDWDGGYWGQGTTLTVSS
# VL: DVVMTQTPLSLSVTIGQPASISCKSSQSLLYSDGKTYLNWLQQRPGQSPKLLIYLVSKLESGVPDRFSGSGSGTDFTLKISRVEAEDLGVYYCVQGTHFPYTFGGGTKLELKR
# notes: mouse-human chimeric IgG from HEK293
# B2: murine anti-Tau hybridoma antibody 17G2.A1 (antibody, V domains shown)
# VH: QVQLQQPGAELVGPGSSVKLSCKASGYTFINYWIDWMKQSPGQGLEWIGNIYPSDSESHYNQKFTDKATLTVDISSSTAYLQLSSLTSEDSAVYYCALYSKGYWGQGTSVTVSS
# VL: DVLMTQTPLSLPVTLGDQASISCRSSQNIVHTNGNTYLEWYLQKPGQSPKLLIYKLSSRFSGVPDRFSGSGSGTDFTLKISRVEAEDLGVYYCFQGSHLPFTFGGGTKLEIKR
# notes: mouse IgG from hybridoma; also called anti-Tau 17G2.A1
# Assays:
# Experiment in all cases: peptide array
# Peptide_036 = target: T1, Peptide_036
# Procedure, shortened: (§1)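 Overlapping 15-mer peptides (5-aa offset) spanning human 2N4R Tau spotted in triplicate on slides; antibodies bound 2 h at room temperature in 3% BSA-TBST (chimeric IgG 5 μg/mL; mouse IgG 30 μg/mL). Detection 1 h with fluorescent anti-human (568 nm) or anti-mouse (647 nm) secondary; fluorescence imaging aligned to array map.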
# Peptide_080 = target: T2, Peptide_080
# Procedure, shortened: as §1
# Peptide_086 = target: T3, Peptide_086
# Procedure, shortened: as §1
# Peptide_033 = target: T4, Peptide_033
# Procedure, shortened: as §1
# Peptide_031 = target: T5, Peptide_031
# Procedure, shortened: as §1
# Peptide_059 = target: T6, Peptide_059
# Procedure, shortened: as §1
# Peptide_008 = target: T7, Peptide_008
# Procedure, shortened: as §1
# Peptide_063 = target: T8, Peptide_063
# Procedure, shortened: as §1
# Peptide_020 = target: T9, Peptide_020
# Procedure, shortened: as §1
# Peptide_053 = target: T10, Peptide_053
# Procedure, shortened: as §1
# Peptide_061 = target: T11, Peptide_061
# Procedure, shortened: as §1
# Peptide_083 = target: T12, Peptide_083
# Procedure, shortened: as §1
# Peptide_074 = target: T13, Peptide_074
# Procedure, shortened: as §1
# Peptide_034 = target: T14, Peptide_034
# Procedure, shortened: as §1
# Peptide_066 = target: T15, Peptide_066
# Procedure, shortened: as §1
# Peptide_055 = target: T16, Peptide_055
# Procedure, shortened: as §1
# Peptide_047 = target: T17, Peptide_047
# Procedure, shortened: as §1
# Peptide_079 = target: T18, Peptide_079
# Procedure, shortened: as §1
# Peptide_075 = target: T19, Peptide_075
# Procedure, shortened: as §1
# Peptide_028 = target: T20, Peptide_028
# Procedure, shortened: as §1
# Peptide_072 = target: T21, Peptide_072
# Procedure, shortened: as §1
# Peptide_038 = target: T22, Peptide_038
# Procedure, shortened: as §1
# Peptide_018 = target: T23, Peptide_018
# Procedure, shortened: as §1
# Peptide_060 = target: T24, Peptide_060
# Procedure, shortened: as §1
# Peptide_037 = target: T25, Peptide_037
# Procedure, shortened: as §1
# Peptide_058 = target: T26, Peptide_058
# Procedure, shortened: as §1
# Peptide_052 = target: T27, Peptide_052
# Procedure, shortened: as §1
# Peptide_014 = target: T28, Peptide_014
# Procedure, shortened: as §1
# Peptide_078 = target: T29, Peptide_078
# Procedure, shortened: as §1
# Peptide_009 = target: T30, Peptide_009
# Procedure, shortened: as §1
# Peptide_069 = target: T31, Peptide_069
# Procedure, shortened: as §1
# Peptide_067 = target: T32, Peptide_067
# Procedure, shortened: as §1
# Peptide_016 = target: T33, Peptide_016
# Procedure, shortened: as §1
Binder,binding result (Peptide_036),binding result (Peptide_080),binding result (Peptide_086),binding result (Peptide_033),binding result (Peptide_031),binding result (Peptide_059),binding result (Peptide_008),binding result (Peptide_063),binding result (Peptide_020),binding result (Peptide_053),binding result (Peptide_061),binding result (Peptide_083),binding result (Peptide_074),binding result (Peptide_034),binding result (Peptide_066),binding result (Peptide_055),binding result (Peptide_047),binding result (Peptide_079),binding result (Peptide_075),binding result (Peptide_028),further results
B1,no binding (tested: 5 ug/mL),no binding (tested: 5 ug/mL),no binding (tested: 5 ug/mL),no binding (tested: 5 ug/mL),no binding (tested: 5 ug/mL),no binding (tested: 5 ug/mL),no binding (tested: 5 ug/mL),no binding (tested: 5 ug/mL),no binding (tested: 5 ug/mL),no binding (tested: 5 ug/mL),no binding (tested: 5 ug/mL),no binding (tested: 5 ug/mL),no binding (tested: 5 ug/mL),no binding (tested: 5 ug/mL),no binding (tested: 5 ug/mL),no binding (tested: 5 ug/mL),no binding (tested: 5 ug/mL),no binding (tested: 5 ug/mL),no binding (tested: 5 ug/mL),no binding (tested: 5 ug/mL),binding result (Peptide_072): no binding (tested: 5 ug/mL); binding result (Peptide_038): no binding (tested: 5 ug/mL); binding result (Peptide_018): no binding (tested: 5 ug/mL); binding result (Peptide_060): no binding (tested: 5 ug/mL); binding result (Peptide_037): no binding (tested: 5 ug/mL); binding result (Peptide_058): no binding (tested: 5 ug/mL); binding result (Peptide_052): binds; binding result (Peptide_014): no binding (tested: 5 ug/mL); binding result (Peptide_078): no binding (tested: 5 ug/mL); binding result (Peptide_009): no binding (tested: 5 ug/mL); binding result (Peptide_069): no binding (tested: 5 ug/mL); binding result (Peptide_067): no binding (tested: 5 ug/mL); binding result (Peptide_016): no binding (tested: 5 ug/mL)
B2,no binding (tested: 30 ug/mL),no binding (tested: 30 ug/mL),no binding (tested: 30 ug/mL),no binding (tested: 30 ug/mL),no binding (tested: 30 ug/mL),no binding (tested: 30 ug/mL),no binding (tested: 30 ug/mL),no binding (tested: 30 ug/mL),no binding (tested: 30 ug/mL),no binding (tested: 30 ug/mL),no binding (tested: 30 ug/mL),no binding (tested: 30 ug/mL),no binding (tested: 30 ug/mL),no binding (tested: 30 ug/mL),no binding (tested: 30 ug/mL),no binding (tested: 30 ug/mL),no binding (tested: 30 ug/mL),no binding (tested: 30 ug/mL),no binding (tested: 30 ug/mL),no binding (tested: 30 ug/mL),binding result (Peptide_072): no binding (tested: 30 ug/mL); binding result (Peptide_038): binds; binding result (Peptide_018): no binding (tested: 30 ug/mL); binding result (Peptide_060): no binding (tested: 30 ug/mL); binding result (Peptide_037): no binding (tested: 30 ug/mL); binding result (Peptide_058): no binding (tested: 30 ug/mL); binding result (Peptide_052): no binding (tested: 30 ug/mL); binding result (Peptide_014): no binding (tested: 30 ug/mL); binding result (Peptide_078): no binding (tested: 30 ug/mL); binding result (Peptide_009): no binding (tested: 30 ug/mL); binding result (Peptide_069): no binding (tested: 30 ug/mL); binding result (Peptide_067): no binding (tested: 30 ug/mL); binding result (Peptide_016): no binding (tested: 30 ug/mL)
